According to article PMC5797133:

Legend:
[1] = target: short-chain dehydrogenase/reductase from Serratia marcescens BCRC 10948 (Serratia marcescens BCRC 10948); assay: crystal structure; apo form, 1.47 Å, space group P4(1)2(1)2; sitting drop, 20 °C, 50 mM HEPES pH 7.0, 40% tacsimate pH 7.0, 2 mM spermine, 2 mM hexamine cobalt (III) chloride; homodimer AB in the asymmetric unit, tetramer by two-fold crystallographic symmetry
[2] = target: short-chain dehydrogenase/reductase from Serratia marcescens BCRC 10948 (Serratia marcescens BCRC 10948); assay: SEC; size-exclusion chromatography of the purified SmSDR; single peak; conditions not given

stoichiometry N [1]: 4 | stoichiometry N [2]: 4
Substance: short-chain dehydrogenase/reductase from Serratia marcescens BCRC 10948 (enzyme)
